In patent US20090118185A1 (UNIVERSITY OF ROCHESTER, published 2009):

B1: 336(P4-P3′)562 factor VIIIa mutant (other)
chain 1: ATRRYYLGAVELSWDYMQSDLGELPVDARFPPRVPKSFPFNTSVVYKKTLFVEFTVHLFNIAKPRPPWMGLLGPTIQAEVYDTVVITLKNMASHPVSLHAVGVSYWKASEGAEYDDQTSQREKEDDKVFPGGSHTYVWQVLKENGPMASDPLCLTYSYLSHVDLVKDLNSGLIGALLVCREGSLAKEKTQTLHKFILLFAVFDEGKSWHSETKNSLMQDRDAASARAWPKMHTVNGYVNRSLPGLIGCHRKSVYWHVIGMGTTPEVHSIFLEGHTFLVRNHRQASLEISPITFLTAQTLLMDLGQFLLFCHISSHQHDGMEAYVKVDSCPEEVDQRGNQNEEAEDYDDDLTDSEMDVVRFDDDNSPSFIQIR
chain 2: SVAKKHPKTWVHYIAAEEEDWDYAPLVLAPDDRSYKSQYLNNGPQRIGRKYKKVRFMAYTDETFKTREAIQHESGILGPLLYGEVGDTLLIIFKNQASRPYNIYPHGITDVRPLYSRRLPKGVKHLKDFPILPGEIFKYKWTVTVEDGPTKSDPRCLTRYYSSFVNMERDLASGLIGPLLICYKESVDQRGNQIMSDKRNVILFSVFDENRSWYLTENIQRFLPNPAGVQLEDPEFQASNIMHSINGYVFDSLQLSVCLHEVAYWYILSIGAQTDFLSVFFSGYTFKHKMVYEDTLTLFPFSGETVFMSMENPGLWILGCHNSDFRNRGMTALLKVSSCDKNTGDYYEDSYEDISAYLLSKNNAIEPR
chain 3: SFQKKTRHYFIAAVERLWDYGMSSSPHVLRNRAQSGSVPQFKKVVFQEFTDGSFTQPLYRGELNEHLGLLGPYIRAEVEDNIMVTFRNQASRPYSFYSSLISYEEDQRQGAEPRKNFVKPNETKTYFWKVQHHMAPTKDEFDCKAWAYFSDVDLEKDVHSGLIGPLLVCHTNTLNPAHGRQVTVQEFALFFTIFDETKSWYFTENMERNCRAPCNIQMEDPTFKENYRFHAINGYIMDTLPGLVMAQDQRIRWYLLSMGSNENIHSIHFSGHVFTVRKKEEYKMALYNLYPGVFETVEMLPSKAGIWRVECLIGEHLHAGMSTLFLVYSNKCQTPLGMASGHIRDFQITASGQYGQWAPKLARLHYSGSINAWSTKEPFSWIKVDLLAPMIIHGIKTQGARQKFSSLYISQFIIMYSLDGKKWQTYRGNSTGTLMVFFGNVDSSGIKHNIFNPPIIARYIRLHPTHYSIRSTLRMELMGCDLNSCSMPLGMESKAISDAQITASSYFTNMFATWSPSKARLHLQGRSNAWRPQVNNPKEWLQVDFQKTMKVTGVTTQGVKSLLTSMYVKEFLISSSQDGHQWTLFFQNGKVKVFQGNQDSFTPVVNSLDPPLLTRYLRIHPQSWVHQIALRMEVLGCEAQDLY
notes: residues 333-339 replaced by residues 559-565; also called fully substituted P4-P3′ mutant
B2: 336(P4-P2)562 factor VIIIa mutant (other)
chain 1: ATRRYYLGAVELSWDYMQSDLGELPVDARFPPRVPKSFPFNTSVVYKKTLFVEFTVHLFNIAKPRPPWMGLLGPTIQAEVYDTVVITLKNMASHPVSLHAVGVSYWKASEGAEYDDQTSQREKEDDKVFPGGSHTYVWQVLKENGPMASDPLCLTYSYLSHVDLVKDLNSGLIGALLVCREGSLAKEKTQTLHKFILLFAVFDEGKSWHSETKNSLMQDRDAASARAWPKMHTVNGYVNRSLPGLIGCHRKSVYWHVIGMGTTPEVHSIFLEGHTFLVRNHRQASLEISPITFLTAQTLLMDLGQFLLFCHISSHQHDGMEAYVKVDSCPEEVDQRMKNNEEAEDYDDDLTDSEMDVVRFDDDNSPSFIQIR
chain 2: SVAKKHPKTWVHYIAAEEEDWDYAPLVLAPDDRSYKSQYLNNGPQRIGRKYKKVRFMAYTDETFKTREAIQHESGILGPLLYGEVGDTLLIIFKNQASRPYNIYPHGITDVRPLYSRRLPKGVKHLKDFPILPGEIFKYKWTVTVEDGPTKSDPRCLTRYYSSFVNMERDLASGLIGPLLICYKESVDQRGNQIMSDKRNVILFSVFDENRSWYLTENIQRFLPNPAGVQLEDPEFQASNIMHSINGYVFDSLQLSVCLHEVAYWYILSIGAQTDFLSVFFSGYTFKHKMVYEDTLTLFPFSGETVFMSMENPGLWILGCHNSDFRNRGMTALLKVSSCDKNTGDYYEDSYEDISAYLLSKNNAIEPR
chain 3: SFQKKTRHYFIAAVERLWDYGMSSSPHVLRNRAQSGSVPQFKKVVFQEFTDGSFTQPLYRGELNEHLGLLGPYIRAEVEDNIMVTFRNQASRPYSFYSSLISYEEDQRQGAEPRKNFVKPNETKTYFWKVQHHMAPTKDEFDCKAWAYFSDVDLEKDVHSGLIGPLLVCHTNTLNPAHGRQVTVQEFALFFTIFDETKSWYFTENMERNCRAPCNIQMEDPTFKENYRFHAINGYIMDTLPGLVMAQDQRIRWYLLSMGSNENIHSIHFSGHVFTVRKKEEYKMALYNLYPGVFETVEMLPSKAGIWRVECLIGEHLHAGMSTLFLVYSNKCQTPLGMASGHIRDFQITASGQYGQWAPKLARLHYSGSINAWSTKEPFSWIKVDLLAPMIIHGIKTQGARQKFSSLYISQFIIMYSLDGKKWQTYRGNSTGTLMVFFGNVDSSGIKHNIFNPPIIARYIRLHPTHYSIRSTLRMELMGCDLNSCSMPLGMESKAISDAQITASSYFTNMFATWSPSKARLHLQGRSNAWRPQVNNPKEWLQVDFQKTMKVTGVTTQGVKSLLTSMYVKEFLISSSQDGHQWTLFFQNGKVKVFQGNQDSFTPVVNSLDPPLLTRYLRIHPQSWVHQIALRMEVLGCEAQDLY

Key:
[1] = system: 336(P4-P2)562 factor VIII mutant (procofactor)
[2] = system: 562(P4-P3′)336 factor VIII mutant (procofactor)
[3] = system: 336(P1′-P3′)562 factor VIII mutant (procofactor)
[4] = system: 562(P4-P2)336 factor VIII mutant (procofactor)
[5] = system: 336(P4-P3′)562 factor VIII mutant (procofactor)
[6] = molecular target: T1, human activated protein C (human, UniProt P04070 43-197; P04070 212-461); test: Ki from competitive inhibition of APC cleavage against the literature Km (102 nM) of WT factor VIIIa for APC
T1 construct: also called APC; human APC
T1 sequence (P04070 43-197, chain 1 of 2): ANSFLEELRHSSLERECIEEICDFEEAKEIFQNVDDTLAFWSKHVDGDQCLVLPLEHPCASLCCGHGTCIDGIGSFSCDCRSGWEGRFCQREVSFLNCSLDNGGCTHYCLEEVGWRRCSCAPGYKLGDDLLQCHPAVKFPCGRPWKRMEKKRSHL
T1 sequence (P04070 212-461, chain 2 of 2): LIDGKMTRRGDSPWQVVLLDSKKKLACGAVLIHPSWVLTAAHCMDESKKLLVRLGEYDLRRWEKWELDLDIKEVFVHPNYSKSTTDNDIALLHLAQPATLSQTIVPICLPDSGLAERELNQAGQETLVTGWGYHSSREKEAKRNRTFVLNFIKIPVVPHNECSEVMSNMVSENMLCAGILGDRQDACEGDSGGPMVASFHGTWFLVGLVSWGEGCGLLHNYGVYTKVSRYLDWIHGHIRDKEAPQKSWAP
Description: The amount of the A1336 (nM) generated over time was determined based on the amount of WT A1 substrate, calculated by subtracting the amount of the mutant A1 from the total amount of A1 subunit.
The rationale for this approach was that if proteinase binding to the mutant were unaffected, then it would efficiently compete with the WT substrate. Furthermore, since the mutant remains essentially uncleaved at the A1 site during a truncated time course, it would serve as an inhibitor of detected cleavage of the WT substrate.

[7] = molecular target: T1, human activated protein C; test: competitive inhibition of APC-catalysed cleavage of WT factor VIIIa A1 subunit by the mutant (0-200 nM); Western blot densitometry, fit to competitive inhibition model with Km 102 nM
Description: Aliquots were taken at various time points (0-20 min) and subjected to SDS-PAGE. […] The amount of the A1336 (nM) generated over time was determined based on the amount of WT A1 substrate, calculated by subtracting the amount of the mutant A1 from the total amount of A1 subunit.
Factor VIII (130 nM) was activated by addition of 10-20 nM thrombin in 20 mM HEPES pH 7.2, 100 mM NaCl, 5 mM CaCl₂, 0.01 % Tween 20, and 100 μg/ml bovine serum albumin (Buffer A) and reactions were run at 37° C. Thrombin was inhibited after 2 min by the addition of 10-20 U/ml hirudin, and the resultant factor VIIIa was reacted with APC (2 or 40 nM) in the presence of 100 μM phospholipid vesicles. Aliquots were removed at the indicated times to assess residual factor VIIIa activity by factor Xa generation assay and proteolysis of subunits by Western blotting.

[8] = molecular target: T1, human activated protein C; test: cell-based or functional assay
[9] = molecular target: T1, human activated protein C; test: cell-based or functional assay; remark: listed apart in the source

Row | Molecule | rates of cleavage of factor VIII and the generation of factor VIIIa subunits [1] | rates of cleavage of factor VIII and the generation of factor VIIIa subunits [2] | rates of cleavage of factor VIII and the generation of factor VIIIa subunits [3] | rates of cleavage of factor VIII and the generation of factor VIIIa subunits [4] | rates of cleavage of factor VIII and the generation of factor VIIIa subunits [5] | fold Ki less than the Km for WT substrate [6] | Ki [7] | Inactivation (nM FVIIIa/min/nM APC) [8] | fold reduction of inactivation rate compared to WT factor VIIIa [9]
1 | α-thrombin | indistinguishable from that for WT factor VIII | indistinguishable from that for WT factor VIII | indistinguishable from that for WT factor VIII | indistinguishable from that for WT factor VIII | indistinguishable from that for WT factor VIII | – | – | – | –
2 | B1 | – | – | – | – | – | ~3 fold | 36 nM | 0.8 nM FVIIIa/min/nM APC | –
3 | B2 | – | – | – | – | – | – | – | 0.5 nM FVIIIa/min/nM APC | 6 to 11 fold
